Test results: article PMC12139779 (bioRxiv, 2025)

Target: T1, Human KLHDC2 (kelch domain, amino acids 1–362) (human, UniProt Q9Y2U9 1-362, biotin (biotinylated with BirA enzyme))
T1 sequence: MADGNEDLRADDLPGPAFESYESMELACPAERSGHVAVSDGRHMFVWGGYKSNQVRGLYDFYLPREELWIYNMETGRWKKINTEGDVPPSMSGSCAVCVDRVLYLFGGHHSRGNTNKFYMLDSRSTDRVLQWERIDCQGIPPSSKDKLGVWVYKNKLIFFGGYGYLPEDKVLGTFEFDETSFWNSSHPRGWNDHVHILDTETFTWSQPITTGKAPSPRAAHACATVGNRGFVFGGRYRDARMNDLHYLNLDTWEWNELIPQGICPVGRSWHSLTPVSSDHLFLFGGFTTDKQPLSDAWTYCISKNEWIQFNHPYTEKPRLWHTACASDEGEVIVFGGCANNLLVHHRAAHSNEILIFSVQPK
Experiment: fluorescence polarisation

## SPPPMAGG [SelK 8-mer (SPPPMAGG)]
  binding result: binds
